# Target: T1, SARS-CoV-2 spike protein (FL-GCN4-Avi-His, 2P, biotinylated trimer) (SARS-CoV-2, Wuhan-Hu-1 (strain named …, UniProt P0DTC2, stabilised, biotin on the Avi tag))
# Assay: BLI
# Conditions: both partners purified
row,Binder,binding result
1,"COV2-2147 IgG (antibody, V domains shown) VH: QVQLAESGGGVVQPGRSLRLSCAASGFTFSSYAMHWVRQAPGKGLEWVAVISYDGSNKYYADSVKGRFTISRDNSKNTLYLQMNSLRAEDTAVYYCARSTSGSYYYGMDVWGQGTTVTVSS VL: QSALTQPASVSGSPGQSITISCTGTSSDVGDYNYVSWYQQHPGKAPKLMIYDVSNRPSGVSNRFSGSKSGNTASLTISGLQAEDEAEYYCSSYTSSSTLLYVFGTGTKVTVL",binds
2,"CV27 Fab (Fab, V domains shown) VH: QVQLVESGGGVVQPGRSLRLSCAASGFTFSSYAMHWVRQAPGKGLEWVALISYDGSNKYYADSVKGRFTISRDNSKNTLYLQMNSLRAEDTAVYYCARSFGGSYYYGMDVWGQGTTVTVSS VL: QSALTQPASVSGSPGQSITISCTGTSSDVGGYNYVSWYQQHPGKAPKLMIYDVSNRPSGVSNRFSGSKSGNTASLTISGLQAEDEADYYCSSYTSSSTPYVFGTGTKVTVL",binds
3,"COV2-2143 Fab (Fab, V domains shown) VH: EVQLVESGGGLVQPGGSLRLSCAASGFTVSSNYMSWVRQAPGKGLEWVSVIYSAGSTYYADSVKGRFSISRDKSKNTLYLQMNSLRAEDTAVYYCAKEGGSGSLRYYYYGMDVWGQGTTVTVSS VL: not shown",binds
4,"COV2-2449 Fab (Fab, V domains shown) VH: QVQLVESGGGVVQPGRSLRLSCATSGFTFSSFALHWVRQAPGKGLEWVTVISDDGNNKYYVDSVKGRFTISRDNSKNTLFLQMNSLRVEDTAIYYCARASYNSNWSIGEYFRDWGQGTLVTVSS VL: not shown",binds
5,"COVA2-14 IgG (antibody, V domains shown) VH: QVQLVQSGAEVKKPGSSVKVSCKASGGTFSSYAIIWVRQAPGQGLEWMGGIIPIFGTANYAQKFQGRVTITTDESTSTAYMELSSLRSEDTAVYYCARVRYYDSSGYYEDYWGQGTLVTVSS VL: EIVLTQSPATLSLSPGERATLSCRASQSVSSYLAWYQQEPGQAPRLLIYDASNRATGIPARFSGSGSGTDFTLTISSLEPEDFAVYYCQQRSNWPPMYTFGQGTKVEIK",binds
6,"COVA2-14 Fab (Fab, V domains shown) VH: QVQLVQSGAEVKKPGSSVKVSCKASGGTFSSYAIIWVRQAPGQGLEWMGGIIPIFGTANYAQKFQGRVTITTDESTSTAYMELSSLRSEDTAVYYCARVRYYDSSGYYEDYWGQGTLVTVSS VL: EIVLTQSPATLSLSPGERATLSCRASQSVSSYLAWYQQEPGQAPRLLIYDASNRATGIPARFSGSGSGTDFTLTISSLEPEDFAVYYCQQRSNWPPMYTFGQGTKVEIK",binds
7,"COVA2-18 IgG (antibody, V domains shown) VH: EVQLVQSGAEVKKPGSSVKVSCKASGGTFSSYAISWVRQAPGQGLEWMGGIIPIFGTTNYAQKFQGRVTITTDESTSTAYMELSSLRSEDTAVYYCARVYSYDSSGYYLEYWGQGTRVTVSS VL: EIVLTQSPATLSLSPGERATLSCRASQSVSSYLAWYQQKPGQAPRLLIYDASNRATGIPARFSGSGSGTDFTLTISSLEPEDFAVYYCQQRSNWPPSITFGQGTRLEIK",binds

# Target: T1, SARS-CoV-2 spike protein …
# Assay: ELISA
# Conditions: both partners purified
row,Binder,binding result
1,"CV27 IgG (antibody, V domains shown) VH: QVQLVESGGGVVQPGRSLRLSCAASGFTFSSYAMHWVRQAPGKGLEWVALISYDGSNKYYADSVKGRFTISRDNSKNTLYLQMNSLRAEDTAVYYCARSFGGSYYYGMDVWGQGTTVTVSS VL: QSALTQPASVSGSPGQSITISCTGTSSDVGGYNYVSWYQQHPGKAPKLMIYDVSNRPSGVSNRFSGSKSGNTASLTISGLQAEDEADYYCSSYTSSSTPYVFGTGTKVTVL",binds
2,"COV2-2143 IgG (antibody, V domains shown) VH: EVQLVESGGGLVQPGGSLRLSCAASGFTVSSNYMSWVRQAPGKGLEWVSVIYSAGSTYYADSVKGRFSISRDKSKNTLYLQMNSLRAEDTAVYYCAKEGGSGSLRYYYYGMDVWGQGTTVTVSS VL: not shown",binds
3,"COV2-2449 IgG (antibody, V domains shown) VH: QVQLVESGGGVVQPGRSLRLSCATSGFTFSSFALHWVRQAPGKGLEWVTVISDDGNNKYYVDSVKGRFTISRDNSKNTLFLQMNSLRVEDTAIYYCARASYNSNWSIGEYFRDWGQGTLVTVSS VL: not shown",binds
